Measurements: publication PMC4965137, “Temporal Shift of Circadian-Mediated Gene Expression and Carbon Fixation Contributes to Biomass Heterosis in Maize Hybrids”

Legend:
Conditions in all cases: protein: recombinant; tags: MBP (pMAL-C2); label: 32P 5' end; blunt
[1] = molecular target: T1, rZmCCA1b (Zea mays B73, UniProt K7U156 1-720); assay: EMSA; self-competed by 25-100X unlabeled DNA; 25 mM HEPES-KOH pH 7.5, 75 mM KCl, 2.5 mM DTT, 10% glycerol, 1.25 ng poly-dIdC; 20 fmol probe, 0.5-2 pmol protein; 10 min room temperature then 20 min on ice with probe; 5% native PAGE
[2] = molecular target: rZmCCA1a (Zea mays B73, UniProt B6SPA3 129-718); assay: EMSA; 1 pmol protein; 25 mM HEPES-KOH pH 7.5, 75 mM KCl, 2.5 mM DTT, 10% glycerol, 1.25 ng poly-dIdC; 20 fmol probe, 0.5-2 pmol protein; 10 min room temperature then 20 min on ice with probe; 5% native PAGE
[3] = molecular target: T1, rZmCCA1b; assay: EMSA; 25 mM HEPES-KOH pH 7.5, 75 mM KCl, 2.5 mM DTT, 10% glycerol, 1.25 ng poly-dIdC; 20 fmol probe, 0.5-2 pmol protein; 10 min room temperature then 20 min on ice with probe; 5% native PAGE

T1 sequence (K7U156 entry or part of it): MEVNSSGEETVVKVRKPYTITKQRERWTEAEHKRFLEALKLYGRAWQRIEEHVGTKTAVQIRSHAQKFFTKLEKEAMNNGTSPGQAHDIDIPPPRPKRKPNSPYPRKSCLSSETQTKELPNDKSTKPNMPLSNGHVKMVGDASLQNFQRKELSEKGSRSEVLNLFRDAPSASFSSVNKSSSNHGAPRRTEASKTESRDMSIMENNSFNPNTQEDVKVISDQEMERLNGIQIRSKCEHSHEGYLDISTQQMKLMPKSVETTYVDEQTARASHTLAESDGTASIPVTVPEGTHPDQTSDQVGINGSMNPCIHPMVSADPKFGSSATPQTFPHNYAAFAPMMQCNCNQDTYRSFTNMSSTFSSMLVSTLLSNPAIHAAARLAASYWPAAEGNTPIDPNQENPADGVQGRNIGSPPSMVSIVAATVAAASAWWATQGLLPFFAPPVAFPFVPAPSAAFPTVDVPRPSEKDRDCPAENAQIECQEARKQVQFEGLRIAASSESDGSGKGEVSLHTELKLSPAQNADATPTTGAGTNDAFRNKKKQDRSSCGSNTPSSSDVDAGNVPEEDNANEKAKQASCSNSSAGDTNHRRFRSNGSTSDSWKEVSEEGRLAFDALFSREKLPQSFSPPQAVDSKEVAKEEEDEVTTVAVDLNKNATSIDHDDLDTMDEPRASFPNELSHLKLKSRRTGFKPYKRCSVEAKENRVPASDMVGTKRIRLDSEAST
Chain of rZmCCA1a (B6SPA3 entry or part of it): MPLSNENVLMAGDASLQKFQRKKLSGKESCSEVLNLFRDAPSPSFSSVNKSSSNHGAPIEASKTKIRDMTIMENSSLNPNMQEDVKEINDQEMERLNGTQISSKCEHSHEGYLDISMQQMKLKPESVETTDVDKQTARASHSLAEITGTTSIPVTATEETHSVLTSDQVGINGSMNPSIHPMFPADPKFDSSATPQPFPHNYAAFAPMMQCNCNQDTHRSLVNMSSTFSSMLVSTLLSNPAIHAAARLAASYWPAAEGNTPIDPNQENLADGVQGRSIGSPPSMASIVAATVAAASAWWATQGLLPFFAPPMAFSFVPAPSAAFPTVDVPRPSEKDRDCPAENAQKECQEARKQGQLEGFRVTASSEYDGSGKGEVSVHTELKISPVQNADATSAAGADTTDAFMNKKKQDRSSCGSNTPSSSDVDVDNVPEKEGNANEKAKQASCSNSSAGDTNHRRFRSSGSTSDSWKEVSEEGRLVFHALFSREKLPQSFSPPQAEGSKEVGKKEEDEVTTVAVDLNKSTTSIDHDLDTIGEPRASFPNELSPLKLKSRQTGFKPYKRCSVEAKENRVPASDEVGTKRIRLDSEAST

| Binder | binding result [1] | binding result [2] | binding result [3] |
| --- | --- | --- | --- |
| ZmTOC1a promoter probe (dsDNA) DNA 1: GGCGAGTTTTAGATATTTTCACCCGCTCC DNA 2: GGAGCGGGTGAAAATATCTAAAACTCGCC | binds | no binding |  |
| GRMZM2G129513 promoter probe (dsDNA) DNA 1: ATTAAATATAAAAATATCTAAATTCATAA DNA 2: TTATGAATTTAGATATTTTTATATTTAAT |  |  | binds |
| gi1 promoter probe (dsDNA) DNA 1: GCATCGCGGAAAAAATCTTTTTCTCGCC DNA 2: GGCGAGAAAAAGATTTTTTCCGCGATGC | binds | no binding |  |
| GRMZM2G033885 promoter probe (dsDNA) DNA 1: TCAGCACTGAAAAATATCTGAGGTTGAAA DNA 2: TTTCAACCTCAGATATTTTTCAGTGCTGA |  |  | binds |
| ZmPRR59 promoter probe (dsDNA) DNA 1: CTCTTTAAAAAAAAATCTTCATTTAAGG DNA 2: CCTTAAATGAAGATTTTTTTTTAAAGAG | binds | no binding |  |
